Source: patent publication US12331106B2, “Anti-angiopoietin-2 antibodies that induce Tie2 activation” (Institute for Basic Science, priority 2018, dated 2025)
Substitutions are numbered along the chain they refer to.

B1: 2C8H11G4: human IgG4 class antibody of 2C8H11 (antibody, V domains shown)
VH: QVQLVQSGAEVKKPGASVKVSCKASGYTFTSYWMHWVRQAPGQGLEWMGMIDPSDSETRLNQKFKDRVTMTRDTSTSTVYMELSSLRSEDTAVYYCARRFYYGSDWYFDVWGQGTLVTVSS
VL: DIQLTQSPSFLSASVGDRVTITCKASQDVGTAVAWYQQKPGKAPKLLIYWASTRHTGVPSRFSGSGSGTEFTLTISSLQPEDFATYYCQQYSSYPLTFGQGTKVEIK
B2: 4B9H11G4: human IgG4 class antibody of 4B9H11 (antibody, V domains shown)
VH: QVQLVESGGGLVKPGGSLRLSCAASGFTFSDYYMYWIRQAPGKGLEWVSTISVGGSFTYYPDSVKGRFTISRDNAKNSLYLQMNSLRAEDTAVYYCARDWGLRPWFVYWGQGTLVTVSS
VL: B1 VL with L4M, F10S, G30S, E70D, Y91H, S92Y, Y94T, L96P
B3: 2C8H12: humanized anti-Ang2 antibody from mouse 2C8; VH SEQ ID NO: 75, VL SEQ ID NO: 76 (antibody, V domains shown)
VH: B1 VH
VL: B1 VL with T20S, S60D
modifications: VH; VL
B4: 2C8H22: humanized anti-Ang2 antibody from mouse 2C8; VH SEQ ID NO: 79, VL SEQ ID NO: 80 (antibody, V domains shown)
VH: B1 VH with T28S, M48I
VL: B1 VL with T20S, S60D
modifications: VH; VL
B5: 2C8H32: humanized anti-Ang2 antibody from mouse 2C8; VH SEQ ID NO: 83, VL SEQ ID NO: 84 (antibody, V domains shown)
VH: B1 VH with T28S, M48I, R67K, V68A, T69S
VL: B1 VL with T20S, S60D
modifications: VH; VL
B6: 2C8H42: humanized anti-Ang2 antibody from mouse 2C8; VH SEQ ID NO: 87, VL SEQ ID NO: 88 (antibody, V domains shown)
VH: B1 VH with T28S, R38K, M48I, R67K, V68A, T69S
VL: B1 VL with T20S, S60D
modifications: VH; VL
B7: 2C8H52: humanized anti-Ang2 antibody from mouse 2C8; VH SEQ ID NO: 91, VL SEQ ID NO: 92 (antibody, V domains shown)
VH: B1 VH with T28S, R38K, M48I, R67K, V68A, T69S, M70L, R72V
VL: B1 VL with T20S, S60D
modifications: VH; VL
B8: 2C8H13: humanized anti-Ang2 antibody from mouse 2C8; VH SEQ ID NO: 95, VL SEQ ID NO: 96 (antibody, V domains shown)
VH: B1 VH
VL: B1 VL with T20S, S60D, T85D, Y87F
modifications: VH; VL
B9: 2C8H23: humanized anti-Ang2 antibody from mouse 2C8; VH SEQ ID NO: 99, VL SEQ ID NO: 100 (antibody, V domains shown)
VH: B1 VH with T28S, M48I
VL: B1 VL with T20S, S60D, T85D, Y87F
modifications: VH; VL
B10: 2C8H33: humanized anti-Ang2 antibody from mouse 2C8; VH SEQ ID NO: 103, VL SEQ ID NO: 104 (antibody, V domains shown)
VH: B1 VH with T28S, M48I, R67K, V68A, T69S
VL: B1 VL with T20S, S60D, T85D, Y87F
modifications: VH; VL
B11: 2C8H43: humanized anti-Ang2 antibody from mouse 2C8; VH SEQ ID NO: 107, VL SEQ ID NO: 108 (antibody, V domains shown)
VH: B1 VH with T28S, R38K, M48I, R67K, V68A, T69S
VL: B1 VL with T20S, S60D, T85D, Y87F
modifications: VH; VL
B12: 2C8H53: humanized anti-Ang2 antibody from mouse 2C8; VH SEQ ID NO: 111, VL SEQ ID NO: 112 (antibody, V domains shown)
VH: B1 VH with T28S, R38K, M48I, R67K, V68A, T69S, M70L, R72V
VL: B1 VL with T20S, S60D, T85D, Y87F
modifications: VH; VL
B13: 2C8H21: humanized anti-Ang2 antibody from mouse 2C8; VH SEQ ID NO: 59, VL SEQ ID NO: 60 (antibody, V domains shown)
VH: B1 VH with T28S, M48I
VL: B1 VL
modifications: VH; VL
B14: 2C8H31: humanized anti-Ang2 antibody from mouse 2C8; VH SEQ ID NO: 63, VL SEQ ID NO: 64 (antibody, V domains shown)
VH: B1 VH with T28S, M48I, R67K, V68A, T69S
VL: B1 VL
modifications: VH; VL
B15: 2C8H41: humanized anti-Ang2 antibody from mouse 2C8; VH SEQ ID NO: 67, VL SEQ ID NO: 68 (antibody, V domains shown)
VH: B1 VH with T28S, R38K, M48I, R67K, V68A, T69S
VL: B1 VL
modifications: VH; VL
B16: 2C8H51: humanized anti-Ang2 antibody from mouse 2C8; VH SEQ ID NO: 71, VL SEQ ID NO: 72 (antibody, V domains shown)
VH: B1 VH with T28S, R38K, M48I, R67K, V68A, T69S, M70L, R72V
VL: B1 VL
modifications: VH; VL

Each molecule was assayed against T1, hAng2 (Homo sapiens, UniProt O15123) (assay: OCTET affinity of humanized anti-Ang2 antibodies against hAng2). Settings: IgG4 class antibodies.
T1 sequence (O15123 19-496): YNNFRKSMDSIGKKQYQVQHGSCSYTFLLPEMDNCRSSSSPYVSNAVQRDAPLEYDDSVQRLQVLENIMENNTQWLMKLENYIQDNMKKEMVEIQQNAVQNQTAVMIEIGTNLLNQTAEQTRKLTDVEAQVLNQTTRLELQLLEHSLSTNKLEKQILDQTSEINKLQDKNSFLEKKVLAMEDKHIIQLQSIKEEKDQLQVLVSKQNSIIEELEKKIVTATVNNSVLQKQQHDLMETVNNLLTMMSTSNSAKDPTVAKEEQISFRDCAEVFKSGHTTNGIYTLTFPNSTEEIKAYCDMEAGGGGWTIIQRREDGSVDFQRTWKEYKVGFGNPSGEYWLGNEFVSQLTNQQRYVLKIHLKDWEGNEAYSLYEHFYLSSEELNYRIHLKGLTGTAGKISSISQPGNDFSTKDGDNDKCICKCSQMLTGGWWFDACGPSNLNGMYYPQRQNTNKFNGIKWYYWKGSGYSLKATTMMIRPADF
Format: binding
Protocol: The affinity of humanized anti-Ang2 antibody against hAng2 was measured using OCTET® system (ForteBio). Specifically, buffer and samples were measured in total 200 μl/well using Black 96-well plates (96 well F-type black plates, Greiner). The biosensor used for affinity measurements was hydrated for 10 min before measurement with AR2G tip (ForteBio OCTET®). After the hydration, humanized anti-Ang2 antibody was diluted in 10 mM sodium acetate, pH 6.0 buffer at a concentration of 10 μg/ml, fixed on AR2G biosensor, and blocked with 1M ethanolamine. The recombinant hAng2 was diluted to 50, 25, 12.5, 6.25, 3.125, and 0 nM with 1× kinetic buffer, and subjected to association for 300 sec and dissociation for 900 sec. For affinity measurement (KD), association rate (K-on) and dissociation rate (K-off) were analyzed by binding curve (global) and fitted to 1:1 binding model using OCTET® data analysis v9.0.0.10 program.
The affinities of humanized 2C8 antibodies to hAng2 were in Table 15.
In the case of B1, the “Kdis” value is reported as 4.35e-06 s⁻¹ and the “Kon” value is reported as 415000 M⁻¹ s⁻¹.
B2 was tested, and the “Kdis” value was 3.46e-05 s⁻¹ and the “Kon” value was 432000 M⁻¹ s⁻¹.

Same assay, conditions: IgG4 class antibodies; statement in words
B1 was tested, and the “affinities to hAng2 antigen” value was “subnanomolar high affinities”.
B2 was tested, and the “affinities to hAng2 antigen” value was “subnanomolar high affinities”.

Same assay, conditions: OCTET, antibody fixed on AR2G biosensor, hAng2 50-0 nM, 1:1 binding model
A Kdis of 1.33e-05 s⁻¹ and a Kon of 95200 M⁻¹ s⁻¹ were found for B3 in this work.
A Kdis of 6.84e-06 s⁻¹ and a Kon of 59600 M⁻¹ s⁻¹ were found for B4 in this work.
A Kdis of 1.49e-05 s⁻¹ and a Kon of 75700 M⁻¹ s⁻¹ were found for B5 in this work.
A Kdis of 3.07e-05 s⁻¹ and a Kon of 80600 M⁻¹ s⁻¹ were found for B6 in this work.
A Kdis of 1.99e-05 s⁻¹ and a Kon of 81900 M⁻¹ s⁻¹ were found for B7 in this work.
A Kdis of 2.77e-05 s⁻¹ and a Kon of 113000 M⁻¹ s⁻¹ were found for B8 in this work.
A Kdis of 2.28e-05 s⁻¹ and a Kon of 79500 M⁻¹ s⁻¹ were found for B9 in this work.
A Kdis of 3.99e-06 s⁻¹ and a Kon of 89600 M⁻¹ s⁻¹ were found for B10 in this work.
A Kdis of 2.65e-05 s⁻¹ and a Kon of 71100 M⁻¹ s⁻¹ were found for B11 in this work.
A Kdis of 3.11e-05 s⁻¹ and a Kon of 80900 M⁻¹ s⁻¹ were found for B12 in this work.
A Kdis of 1.5e-05 s⁻¹ and a Kon of 111000 M⁻¹ s⁻¹ were found for B13 in this work.
A Kdis of 2.21e-05 s⁻¹ and a Kon of 83200 M⁻¹ s⁻¹ were found for B14 in this work.
A Kdis of 1.67e-05 s⁻¹ and a Kon of 67000 M⁻¹ s⁻¹ were found for B15 in this work.
A Kdis of 9.61e-06 s⁻¹ and a Kon of 70200 M⁻¹ s⁻¹ were found for B16 in this work.
